Reference: patent US20060018907A1 (published 2006)

Legend:
[1] = biological target: human lymphotoxin (TNFβ) (human) (UniProt P01374); assay: cell-based or functional assay
[2] = biological target: human tumor necrosis factor-α (TNFα) (human, UniProt P01375 77-233); assay: cell-based or functional assay
human tumor necrosis factor-α (TNFα), sequence (P01375 77-233): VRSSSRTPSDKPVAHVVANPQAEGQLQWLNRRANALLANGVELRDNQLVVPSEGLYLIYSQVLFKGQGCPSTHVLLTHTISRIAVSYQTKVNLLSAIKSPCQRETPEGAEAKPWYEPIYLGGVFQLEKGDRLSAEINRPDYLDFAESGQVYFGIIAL

human lymphotoxin (TNFβ) (human), sequence (P01374 35-205 limits assumed): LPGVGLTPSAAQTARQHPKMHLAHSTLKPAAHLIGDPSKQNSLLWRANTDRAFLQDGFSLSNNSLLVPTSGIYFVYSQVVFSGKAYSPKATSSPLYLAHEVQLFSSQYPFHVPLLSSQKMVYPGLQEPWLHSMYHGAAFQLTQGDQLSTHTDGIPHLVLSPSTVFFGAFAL

p55-sf2 (p55 TNF receptor / IgG1 heavy chain single fusion with truncated light chain JCK) (from UniProt P19438) (Fc fusion)
amount needed for the same inhibition of TNFβ cytotoxicity, against p75P-sf2 (fold against p75P-sf2) [1]: 3

B1: chimeric mouse/human IgG1 anti-platelet mAb (7E3) (antibody, INN chains, looked up, V domains shown)
VH: EVQLQQSGTVLARPGASVKMSCEASGYTFTNYWMHWVKQRPGQGLEWIGAIYPGNSDTSYIQKFKGKAKLTAVTSTTSVYMELSSLTNEDSAVYYCTLYDGYYVFAYWGQGTLVTVSA
VL: EIVLTQSPVTLSVTPGDSVSLSCRASRDISNNLHWFQQTSHESPRLLIKYASQSMSGIPSRFSGSGSGTDFTLSINSVETEDFGMYFCQQTNSWPYTFGGGTKLEIK
modifications: IgG1
IL-6 secreted by FS-4 fibroblasts (ng/ml); 4 µg/ml antibody, 0.3 ng/ml TNF (no antibody: 1.36) [2]: 1.6 ng/ml IL-6
IL-6 secreted by FS-4 fibroblasts (ng/ml); 4 µg/ml antibody, 1.5 ng/ml TNF (no antibody: 2.00) [2]: 1.96 ng/ml IL-6
IL-6 secreted by FS-4 fibroblasts (ng/ml); 4 µg/ml antibody, 7.5 ng/ml TNF (no antibody: 2.56) [2]: 2.16 ng/ml IL-6

B2: p75-sf2 (complete extracellular domain of p75 fused to the IgG1 heavy chain, with truncated light chain) (Fc fusion)
chain: QLPAQVAFTPYAPEPGSTCRLREYYDQTAQMCCSKCSPGQHAKVFCTKTSDTVCDSCEDSTYTQLWNWVPECLSCGSRCSSDQVETQACTREQNRICTCRPGWYCALSKQEGCRLCAPLRKCRPGFGVARPGTETSDVVCKPCAPGTFSNTTSSTDICRPHQICNVVAIPGNASMDAVCTSTSPTRSMAPGAVHLPQPVSTRSQHTQPTPEPSTAPSTSFLLPMGPSPPAEGSTGDGTLVTVSS
amount needed for 50% inhibition of TNFα cytotoxicity, against p55-sf2 [2]: ~2 fold against p55-sf2
